pKd: −log10 of the molar value.

In general, pKd refers to the negative decadic logarithm of the Kd, by convention in mol/L.

The target of experiment [1] is type 1 IGF receptor (IGF-1R) (human) (UniProt P08069). Kind of experiment: competition binding to IGF receptors against radioactive wild type IGF.
For experiment [2] the target is unchanged. In words: displacement of 125I-IGF-1 from MCF7 cells, 4 C overnight. In general terms: Displacement assays read how much labelled ligand stays bound in the presence of the test substance.

type 1 IGF receptor (IGF-1R) (human), sequence (P08069 31-1367): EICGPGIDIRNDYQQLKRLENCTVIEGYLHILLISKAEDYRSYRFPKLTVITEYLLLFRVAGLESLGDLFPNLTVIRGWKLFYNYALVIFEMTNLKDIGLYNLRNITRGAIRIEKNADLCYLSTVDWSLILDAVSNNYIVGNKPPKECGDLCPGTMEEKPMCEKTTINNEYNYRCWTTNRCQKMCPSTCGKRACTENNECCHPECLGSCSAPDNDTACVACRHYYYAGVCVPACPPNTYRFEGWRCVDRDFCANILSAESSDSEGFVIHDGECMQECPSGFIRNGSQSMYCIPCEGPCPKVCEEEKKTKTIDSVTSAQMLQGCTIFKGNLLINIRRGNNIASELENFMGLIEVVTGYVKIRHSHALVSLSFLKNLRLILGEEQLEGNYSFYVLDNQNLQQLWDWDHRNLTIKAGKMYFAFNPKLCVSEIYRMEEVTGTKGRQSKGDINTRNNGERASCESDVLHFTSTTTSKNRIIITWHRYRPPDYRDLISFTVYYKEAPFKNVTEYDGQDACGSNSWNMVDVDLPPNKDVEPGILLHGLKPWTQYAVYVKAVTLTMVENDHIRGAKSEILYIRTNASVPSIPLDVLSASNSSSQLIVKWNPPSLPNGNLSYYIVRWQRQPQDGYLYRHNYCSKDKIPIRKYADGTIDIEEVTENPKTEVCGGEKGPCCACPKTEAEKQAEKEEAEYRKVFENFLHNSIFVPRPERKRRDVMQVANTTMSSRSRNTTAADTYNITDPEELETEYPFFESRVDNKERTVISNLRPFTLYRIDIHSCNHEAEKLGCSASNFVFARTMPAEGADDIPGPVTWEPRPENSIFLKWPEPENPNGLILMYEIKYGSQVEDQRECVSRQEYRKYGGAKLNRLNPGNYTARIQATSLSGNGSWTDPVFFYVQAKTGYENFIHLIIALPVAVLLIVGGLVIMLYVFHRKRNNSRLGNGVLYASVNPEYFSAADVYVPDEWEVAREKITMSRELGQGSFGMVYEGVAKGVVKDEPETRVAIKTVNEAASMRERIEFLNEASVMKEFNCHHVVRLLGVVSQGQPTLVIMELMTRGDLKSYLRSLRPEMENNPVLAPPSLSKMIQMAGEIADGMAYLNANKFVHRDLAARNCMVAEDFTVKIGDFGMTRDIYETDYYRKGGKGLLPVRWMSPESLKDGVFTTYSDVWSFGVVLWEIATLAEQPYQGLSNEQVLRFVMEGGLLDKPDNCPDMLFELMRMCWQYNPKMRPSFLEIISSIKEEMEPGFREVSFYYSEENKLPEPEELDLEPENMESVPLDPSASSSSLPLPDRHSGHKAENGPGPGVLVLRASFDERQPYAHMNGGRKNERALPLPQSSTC

Consider long-R3-IGF (ligand), for which the pKd in experiment [1] is 9.00; in experiment [2], 8.52.

The values are drawn from patent US20260207757A1.
